Common to all, as to format: biochemical, Z. mays
For data set [1], the system named is 4-hydroxyphenylpyruvate dioxygenase (HPPD). As to the kind of experiment: Estimate of kcat from initial rate at saturating hydroxyphenylpyruvate without inhibitor (ON rate ratio assay). The source says:
(§1) Higher KD (reduced affinity or increased insensitivity) can be attained with a numerically smaller ON rate, a larger OFF rate or both. To detect and quantify changes in kON and kOFF, observations of the time course of an HPPD reaction as inhibitor binds to and inactivates the enzyme (kON), or is released from a pre-formed enzyme-inhibitor complex (kOFF) were used, as shown in FIGS. 13A and 13B. In practice, a quantitative indicator of kON was obtained by monitoring the time courses of HPPD reactions containing 60 or 120 nM HPPD and 100 μM HPP in the presence and absence of 4 μM inhibitor (e.g., mesotrione or tembotrione). The ratio of the reaction rate with inhibitor to that without inhibitor during the 70 to 90 second interval of the reaction was termed the “ON rate ratio”. The smaller the actual kON, the more slowly the HPPD reaction decelerates and the higher the value is for the ON rate ratio. FIGS. 13A and 13B illustrate the contrasting reaction velocity in the 70-90 sec interval for maize wild-type HPPD (FIG. 13A) versus an improved variant (SEQ ID NO:78) (FIG. 13B).
Thirty nine variants were desensitized to tembotrione compared with the backbone enzyme, Round 7, variant 9070 (SEQ ID NO:2) and all were desensitized compared with maize wild type HPPD (SEQ ID NO:1). Because the assay for ON rate ratio includes an initial rate measurement at saturating hydroxyphenylpyruvate without inhibitor and with known enzyme concentration, an estimate of kcat was available. Taking into account kcat and insensitivity parameters, 30 variants were selected for measurement of substrate saturation kinetic parameters and re-evaluation of insensitivity to tembotrione. The kinetic and insensitivity parameters were determined as described in Example 1, and were multiplied to generate the “trait fitness” parameter. The complete list of variants, i.e., of selected single substitutions in SEQ ID NO:2, analyzed with multiple inhibitors and the results obtained are shown in Table 6. The same set of 30 variants were evaluated for insensitivity to mesotrione, sulcotrione, isoxaflutole (its active diketonitrile form, abbreviated DKN in Table 6) and topramezone.

Data set [2] has the same test system. As to the kind of experiment: Insensitivity parameter (ON × OFF) and trait fitness (ON × OFF × kcat/KM or × kcat). More on the design: key to ON × OFF / Insensitivity, mesotrione, ON × OFF / Insensitivity, tembotrione, ON × OFF / Insensitivity, topramezone, ON × OFF / Insensitivity, sulcotrione, ON × OFF / Insensitivity, isoxaflutole (DKN), ON × OFF: insensitivity = ON rate ratio × OFF rate ratio (surrogate for KD). The source says:
Because substrate and inhibitors bind in the same site, the high concentration of substrate present may competitively trap the inhibitor and prevent it from binding again. To be sure that improvement in ON rates is being taken into account, the ON and OFF rate ratios were multiplied, creating an “insensitivity parameter” that is a surrogate for KD. KD is expressed as kOFF/kON, but because the ON rate ratio is an inverse parameter (the higher the value of ON rate ratio, the lower the value of the represented phenomenon, kON), it is appropriate to multiply ON and OFF rate ratios rather then divide OFF rate ratio by ON rate ratio. Another parameter, which quantifies the combined catalytic and insensitivity properties of the enzyme is kcat/KM×ON rate ratio×OFF rate ratio, and is termed “trait fitness”. This parameter is intended to have a meaning similar to the commonly used expression kcat/KM×Ki.

Data set [3] has the same test system. As to the kind of experiment: ON rate ratio: HPPD reaction rate with vs without inhibitor in the 70 to 90 second interval. As to conditions: Table 7; tembotrione; combinatorial variants.
Text: as §1

Data set [4] shares this test system. Description: OFF rate ratio: release of inhibitor from pre-formed enzyme-inhibitor complex. As to conditions: Table 7; tembotrione; combinatorial variants. On the procedure:
A quantitative indicator of kOFF can be obtained by observing the time course of an HPPD reaction as inhibitor is released from a pre-formed enzyme-inhibitor complex. HPPD and inhibitor were incubated together at concentrations of 7.2 and 8 μM, respectively. Incubations with the same concentrations of enzyme but no inhibitor were done in parallel. After 1 hr at room temperature, 5 to 10 μl of the enzyme-inhibitor complex was dispensed into the wells of the assay plate. Reactions were started with the addition of 290 to 295 μl of 25 mM Hepes, pH 7, 2 mM ascorbate, 10 μM FeSO4, 100 μM HPP and 50 nM HGD. The reactions were monitored at 320 nm for 12 min. Reaction velocity accelerates as inhibitor is released from the enzyme until a steady state is reached, during which the reaction velocity is constant. The ratio of the steady state rate in mixtures containing herbicidal inhibitor to the initial velocity of mixtures lacking inhibitor is termed the “OFF rate ratio”.
Another parameter to record is the time span required for the reactions with inhibitor to reach the steady state. FIGS. 13C and 13D illustrate the contrasting time span in which maize wild-type HPPD (FIG. 13C) and an improved variant (SEQ ID NO:78) (FIG. 13D) dissociated from mesotrione, as indicated by the accelerating reaction rates. The plateau of absorbance is due to exhaustion of the substrate. With the improved variant, not only was the steady state attained in a shorter time span (80 sec for the variant versus 280 sec for wild type), the velocity attained was twice as high as with wild type, though the enzymes were present at the same concentration (240 nM). This is because a larger fraction of the variant enzyme is free of inhibitor compared to the wild-type enzyme, and the kcat for both is nearly the same, about 220 min^−1.

Where [5] appears, read: Table 7, combinatorial variants.
The mark [6] stands for this setting: Table 7, tembotrione, combinatorial variants.

The values below come from US11015206B2, “Compositions and methods comprising sequences having hydroxyphenylpyruvate dioxygenase (HPPD) activity” (PIONEER HI-BRED INTERNATIONAL, INC., priority 2014, dated 2021).

Numbering of substitutions follows the chain as printed.

B1: P056028-A-05 (protein)
chain: MGPTPTATAAGAAVAAASAAEQAAFRLVGHRNFVRFNPRSDRFQTLAFHHVELWCADAASAAGRFSFALGVPLAARSDLSTGNSAHASLLLRSGSLSLLFTAPYAHGADAATAALPSFSAAAARRFAADHGLAVRAVALRVADAEDAFRASVAAGARPAFGPVDLGRGFRLAEVELYGDVVLRYVSYPDGAAGEPFLPGFEGVASQGAADYGLSRFDHIVGNVPELAPAAAYMAGFTGFHEFAEFTTEDVGTTESGLNSMALANNSENVLLPLNEPVHGTKRRSQIQTFLDHHGGPGVQHIALASDDVLRTLREMRARSAMGGFEFLPPPLSDYYDGVRKCAGDVLTEAQINECQELGVMVDRDDEGVLLQIFTKPVGDRPTFFLEIIQRIGCMEKDEKGQEYQKGGCGGFGKGNFGQLFKSIEDYEKSLEAKQAAAAATAQGS
modifications: Zea mays variant form created by artificial means.
In general, kcat refers to the maximal rate divided by the concentration of active sites. With B1, the kcat was 17.7 min⁻¹ in data set [1] (Megatable 3, shuffled variants) and 17.7 min⁻¹ in data set [1] (setting [5]). Also, the “ON × OFF” value in data set [2] (Megatable 3, shuffled variants) is given as 0.198; in data set [2] (setting [6]) it was 0.198. In addition, the “ON × OFF × kcat” value came out at 3.50 in data set [2] (Megatable 3, shuffled variants) and 3.50 in data set [2] (setting [6]). In addition, in data set [3], the ON rate ratio is recorded as 0.707. Moreover, the OFF rate ratio in data set [4] is 0.280.

B2: P056028-B-01 (protein)
chain: B1 chain with Q206P, I387L
modifications: Zea mays variant form created by artificial means.
Turning to B2, the kcat was 18.6 min⁻¹ in data set [1] (Megatable 3, shuffled variants) and 18.6 min⁻¹ in data set [1] (setting [5]). The “ON × OFF” value is 0.230 in data set [2] (Megatable 3, shuffled variants) and 0.230 in data set [2] (setting [6]). Also, the “ON × OFF × kcat” value in data set [2] (Megatable 3, shuffled variants) worked out at 4.28; in data set [2] (setting [6]) it was 4.28. In data set [3], the ON rate ratio amounted to 0.745. In data set [4], the OFF rate ratio amounted to 0.309.

B3: P056028-B-07 (protein)
chain: B1 chain with K340R, L385I, I387L
modifications: Zea mays variant form created by artificial means.
In the case of B3, the kcat in data set [1] (Megatable 3, shuffled variants) was 9.2 min⁻¹; in data set [1] (setting [5]), 9.2 min⁻¹. For the same molecule, the “ON × OFF” value in data set [2] (Megatable 3, shuffled variants) came to 0.307; in data set [2] (setting [6]), 0.307. Besides, the “ON × OFF × kcat” value in data set [2] (Megatable 3, shuffled variants) worked out at 2.83; in data set [2] (setting [6]), 2.83. Further, the ON rate ratio in data set [3] is 0.788. Also, in data set [4], the OFF rate ratio came to 0.389.

B4: P056028-B-03 (protein)
chain: B1 chain with Q206P, S214N, K340R, E356R
modifications: Zea mays variant form created by artificial means.
Take B4: the kcat in data set [1] (Megatable 3, shuffled variants) was 17.9 min⁻¹; in data set [1] (setting [5]), 17.9 min⁻¹. Further, the “ON × OFF” value in data set [2] (Megatable 3, shuffled variants) is on record as 0.259; in data set [2] (setting [6]), 0.259. Besides, the “ON × OFF × kcat” value was 4.63 in data set [2] (Megatable 3, shuffled variants) and 4.63 in data set [2] (setting [6]). For the same molecule, the ON rate ratio in data set [3] turned out to be 0.732. In addition, the OFF rate ratio in data set [4] was determined as 0.353.

B5: P056028-B-04 (protein)
chain: B1 chain with L182M, Q206S, S214N
modifications: Zea mays variant form created by artificial means.
In the case of B5, the kcat in data set [1] (Megatable 3, shuffled variants) is 16.5 min⁻¹; in data set [1] (setting [5]), 16.5 min⁻¹. In addition, the “ON × OFF” value in data set [2] (Megatable 3, shuffled variants) stood at 0.196; in data set [2] (setting [6]) it was 0.196. Further, the “ON × OFF × kcat” value was determined as 3.24 in data set [2] (Megatable 3, shuffled variants) and 3.24 in data set [2] (setting [6]). The ON rate ratio in data set [3] worked out at 0.718. In addition, the OFF rate ratio in data set [4] is recorded as 0.273.

B6: P056028-A-07 (protein)
chain: B1 chain with A191G, Y211L, K340R
modifications: Zea mays variant form created by artificial means.
Take B6: the kcat was 19.5 min⁻¹ in data set [1] (Megatable 3, shuffled variants) and 19.5 min⁻¹ in data set [1] (setting [5]). The “ON × OFF” value in data set [2] (Megatable 3, shuffled variants) was 0.239; in data set [2] (setting [6]), 0.239. In addition, the “ON × OFF × kcat” value in data set [2] (Megatable 3, shuffled variants) amounted to 4.65; in data set [2] (setting [6]), 4.65. Further, the ON rate ratio in data set [3] came to 0.726. Besides, in data set [4], the OFF rate ratio was 0.329.

B7: P056028-A-09 (protein)
chain: B1 chain with P158K, Q206P, Y211L, S214N, K340R
modifications: Zea mays variant form created by artificial means.
On to B7, for which the kcat is 13.9 min⁻¹ in data set [1] (Megatable 3, shuffled variants) and 13.9 min⁻¹ in data set [1] (setting [5]). The “ON × OFF” value in data set [2] (Megatable 3, shuffled variants) came out at 0.235; in data set [2] (setting [6]), 0.235. Also, the “ON × OFF × kcat” value in data set [2] (Megatable 3, shuffled variants) amounted to 3.26; in data set [2] (setting [6]), 3.26. For the same molecule, in data set [3], the ON rate ratio is reported as 0.692. The OFF rate ratio in data set [4] came out at 0.339.

B8: P056028-B-10 (protein)
chain: B1 chain with L182M, Q206P, K340R, L385V
modifications: Zea mays variant form created by artificial means.
With B8, the kcat was 17.9 min⁻¹ in data set [1] (Megatable 3, shuffled variants) and 17.9 min⁻¹ in data set [1] (setting [5]). Also, the “ON × OFF” value was found to be 0.230 in data set [2] (Megatable 3, shuffled variants) and 0.230 in data set [2] (setting [6]). For the same molecule, the “ON × OFF × kcat” value in data set [2] (Megatable 3, shuffled variants) was 4.12; in data set [2] (setting [6]), 4.12. Besides, the ON rate ratio in data set [3] came out at 0.703. Moreover, the OFF rate ratio in data set [4] worked out at 0.327.

B9: P056028-B-06 (protein)
chain: B1 chain with Q206P, K340R, E356K
modifications: Zea mays variant form created by artificial means.
As to B9, the kcat is 20 min⁻¹ in data set [1] (Megatable 3, shuffled variants) and 20 min⁻¹ in data set [1] (setting [5]). The “ON × OFF” value in data set [2] (Megatable 3, shuffled variants) turned out to be 0.252; in data set [2] (setting [6]), 0.252. The “ON × OFF × kcat” value was found to be 5.03 in data set [2] (Megatable 3, shuffled variants) and 5.03 in data set [2] (setting [6]). Also, the ON rate ratio in data set [3] amounted to 0.713. Further, the OFF rate ratio in data set [4] turned out to be 0.353.

B10: P056028-B-05 (protein)
chain: B1 chain with Q206P, K281R, I387L
modifications: Zea mays variant form created by artificial means.
For B10, the kcat in data set [1] (Megatable 3, shuffled variants) is 18.3 min⁻¹; in data set [1] (setting [5]) it was 18.3 min⁻¹. Moreover, the “ON × OFF” value in data set [2] (Megatable 3, shuffled variants) was 0.211; in data set [2] (setting [6]), 0.211. In addition, the “ON × OFF × kcat” value in data set [2] (Megatable 3, shuffled variants) is recorded as 3.85; in data set [2] (setting [6]) it was 3.85. For the same molecule, in data set [3], the ON rate ratio is 0.734. Also, the OFF rate ratio in data set [4] is on record as 0.287.
